From patent US20240240209A1, “SYNTHESIS OF ENANTIOPURE CIS-A-IRONE FROM A RENEWABLE CARBON SOURCE” (Agency for Science, Technology and Research, priority 2021, published 2024)

Legend:
[1] = In vivo cis-α-irone production from glucose/glycerol in strain 2O31 cultures; assay type: cell-based, Escherichia coli; conditions: pMT plasmid transformed into strain 2O31; 2 days
From the text: The advantage of in vivo biotransformation is that microbial cells can regenerate expensive co-factors rendering the scale-up bioprocess more cost-effective. […] Thus, pMT was incorporated into our psi-ionone producing microbe^7,8, to synthesize cis-α-irone from cheap renewable carbon sources (glucose/glycerol) (FIG. 4 and FIG. 19). To achieve high productivity, the psi-ionone production was first optimized by multidimensional heuristic process (MHP)^15, and strain 2O31 was identified to be the highest producer for psi-ionone (FIG. 19b). 2O31 was used as the base strain to probe cis-α-irone production in vivo (Table 5). Moreover, to improve the plasmid stability, auxotrophic strain was used with chemically defined media^1. The plasmid carrying pMT1, pMT7 or pMT10 was transformed into the strain 2O31, and produced less than 0.01, about 2 and about 3 mg/L cis-α-irone respectively in 2 days (FIG. 19d). To further optimize irone production with pMT10, three different culture conditions were tested: no methionine or dodecane added (control); 10 mM methionine added; 10 mM methionine and 20% dodecane added. In the control reaction, approximately 4.8 mg/L or 0.85 mg/L/OD cis-α-irone was produced after 3-day incubation (2O31-pMT10, FIGS. 4c and 4e). […] Lastly, when both methionine and dodecane were added, psi-ionone was accumulated in the organic layer and only ˜0.3 mg/L or ˜0.05 mg/L/OD cis-α-irone was produced (2O31-pMT10, FIGS. 4c, d and e). […] The limited methylation efficiency might be due to insufficient cofactor or SAH inhibition. […] In fact, the total amount of psi-ionone and cis-α-irone decreased (FIG. 4c, and d). As SAM biosynthesis is regulated by metJ in E. coli^16,17, the aforementioned six reactions were subsequently examined under metJ deleted genetic background (2O31, ΔmetJ). An increase in cis-α-irone titer to ˜5.7 mg/L was produced by 2O31 ΔmetJ-pMT10 strain with 10 mM methionine supplementation (FIG. 4c). An increase in specific cis-α-irone titer to ˜1.2 mg/L/OD was produced by 2O31 ΔmetJ-pMT10r strain without methionine supplementation (FIG. 4d). […]

[2] = Cell lysate reaction of pMT enzymes with psi-ionone, irones quantified by HS-SPME-GCMS; assay type: biochemical; conditions: for fold change in cis-α-irone produced: AUC vs non-mutated (=1)
Method in brief: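 pMT1 site-saturation mutants were expressed in E. coli BL21(DE3) and lysed, and lysates were incubated 2 days at 28 °C with 0.2 mM SAM and 10 mg/L psi-ionone (plus caryophyllene) in 50 mM Tris pH 7, 10 mM MgCl2. Cis-α-irone was measured by HS-SPME-GCMS peak area and given as fold change over non-mutated enzyme.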

B1: pMT1: wild-type bifunctional methyltransferase and cyclase TleD from Streptomyces blastmyceticus (protein, listed as Streptomyces blastmyceticus)
chain: MPQEARTPQQQVTADEVGDWYDKFGEVYHLTLGESVHCGLWFPPDAPVPQDMELVTMSSQAQDRYTDYLIETLDPKAGQHLLDIGCGTGRTALKAARQRGIAVTGVAVSKEQIAAANRLAAGHGLTERLTFEVADAMRLPYEDESFDCAWAIESLCHMDRAKALGEAWRVLKPGGDLLVLESVVTEELTEPETALFETLYAANVPPRLGEFFDIVSGAGFHTLSLKDLSANLAMTMNVFALGVYSRRAEFTERFGAEFVDGLLAGLGSAQETLIRKTRFFMATLRKPAV
[1]
  cis-α-irone produced: less than 0.01 mg/L
[2]; cell extracts with psi-ionone
  cis-α-irone content (percentage of cis-α-irone in the irone mixture): 21%
  trans-α-irones detected (share of irones): 79%
[2]; pMT1_E153 mutants
  fold change in cis-α-irone produced: 1.0
[2]; pMT1_M236 mutants
  fold change in cis-α-irone produced: 1.0
[2]; pMT1_R160 mutants
  fold change in cis-α-irone produced: 1.0
[2]; pMT1_S182 mutants
  fold change in cis-α-irone produced: 1.0
[2]; pMT1_Y200 mutants
  fold change in cis-α-irone produced: 1.0
